Experimental data reported in US20100022401A1, “Avidin-like proteins from symbiotic bacteria” (LICENTIA OY, priority 2004, published 2010).
Where two headings read alike, the source gives them in different places. Marks after values point to notes of the source that are not given here.

Tests used:
[1] = [3H]biotin dissociation rate assay; format: binding; conditions: radio-biotin, different temperatures
Method: (§1) FIG. 2 Biotin dissociation analysis. (A) The [3H]biotin dissociation rate constant was measured at different temperatures. The values for streptavidin are from Klumb et al. (Klumb et al., 1998). The scale of the Y axis is logarithmic. (B) Release of fluorescent biotin conjugate from avidins was studied as a function of time in the presence of excess D-biotin at 50° C.
(§2) Ligand binding properties were studied both by [3H]biotin assay and fluorescent biotin conjugate assay. The dissociation rate constant of [3H]biotin (Amersham) from the bradavidins and avidin was measured at various temperatures as described in detail previously (Klumb et al., 1998). According to the results, (Table I, FIG. 2) the faster dissociation rate measured from bradavidin indicates weaker affinity toward the radiobiotin than those of avidin and streptavidin. The dissociation rate of a fluorescent biotin conjugate (ArcDia BF560™-biotin) was measured as previously described (Hytönen et al., 2004a) at 50° C.

[2] = Fluorescent biotin conjugate dissociation assay; format: binding; conditions: for Fluorescent biotin kdiss: ArcDia BF560-biotin; for Fluorescent biotin kdiss / Release 1 h of fluorescent biotin conjugate: 50° C.; for Fluorescent biotin conjugate dissociation (in words): fluorescent biotin conjugate as ligand; for Release 1 h of fluorescent biotin conjugate: one hour, presence of excess free biotin
Method: as §1, §2
(§3) The apparent molecular mass is indicated and followed by the theoretical mass in brackets. Transition temperature (Tr) indicates the temperature in which half of the protein is tetrameric and half monomeric in the absence (first value) and presence (second value) of biotin. In addition to the measured dissociation rate constant (kdiss), the release percentage of the fluorescent biotin conjugate in one hour in the presence of excess free biotin is indicated. Calculated isoelectrical point (pI) and the number of cysteine residues per monomer are also indicated.

[3] = values from Bayer et al., 1996, cited from earlier work
[4] = SDS-PAGE based thermal stability (heat treatment); format: physicochemical
From the text: The thermal stability characteristics of the proteins were studied by a SDS-PAGE based method as previously described in detail by (Bayer et al., 1996).
as §3

Molecule	[3H]biotin dissociation rate (in words) [1]	Fluorescent biotin kdiss [2]	Fluorescent biotin conjugate dissociation (in words) [2]	Release 1 h of fluorescent biotin conjugate [2]	Heat treatment SDS-PAGE Tr (transition temperature) ([3]; absence of biotin)	Heat treatment SDS-PAGE Tr (transition temperature) ([3]; presence of biotin)	Heat treatment SDS-PAGE Tr (transition temperature, half tetrameric and half monomeric) ([4]; absence of biotin)	Heat treatment SDS-PAGE Tr (transition temperature, half tetrameric and half monomeric) ([4]; presence of biotin)
Avidin: chicken avidin (SEQ ID NO:6), glycosylated biotin-binding protein (protein) NSARSTPGCPPAAEMVHATSPLLLLLLLSLALVAPGLSARKCSLTGKWTNDLGSNMTIGAVNSRGEFTGTYITAVTATSNEIKESPLHGTQNTINKRTQPTFGFTVNWKFSESTTVFTGQCFIDRNGKEVLKTMWLLRS	clearly the slowest dissociation	0.00027 s⁻¹	clearly the fastest in dissociation	71.5%	58^a ° C.	100^a ° C.		
Bradavidin: full length wild-type (138 amino acid residues, SEQ ID NO:1) avidin-like biotin-binding protein from Bradyrhizobium japonicum (protein, listed as Bradyrhizobium japonicum) QSVNWTWTNQYGSTLAITSFNSNTGAITGTYTNNAANSCDEGKPQGVTGWLAYGNTGTAISFSVNFLGCGSTTVWTGQLNNATGFQGLWYLSLAEAVAWNGISAGADTFTFSSGDKALLTKSGVDLKAGSEKLSNTKK	fastest dissociation rate	1.5e-05 s⁻¹	very slow and small release	4.7%			65^ ° C.	85 °C
Bradavidin-core: C-terminally truncated core form (118 amino acid residues, SEQ ID NO:2) of biotin-binding protein from Bradyrhizobium japonicum, produced in E. coli (protein, listed as Bradyrhizobium japonicum) QSVNWTWTNQYGSTLAITSFNSNTGAITGTYTNNAANSCDEGKPQGVTGWLAYGNTGTAISFSVNFLGCGSTTVWTGQLNNATGFQGLWYLSLAEAVAWNGISAGADTFTFSSGDKAL		1.2e-05 s⁻¹		4.4%			70^ ° C.	85 °C
